Here are results for two molecules from publication PMC10715038 (2023).

Usually Kd stands for the equilibrium constant for the complex coming apart. A higher Kd goes with weaker binding.

For the experiment, the target named is SARS-CoV-2 WHU01 RBD, monomeric (SARS-CoV-2 (WHU01), UniProt P0DTC2). As to the kind of experiment: SPR.

B1: cat ACE2 extracellular domain, human IgG1 Fc fusion protein (Fc fusion)
chain: QSTTEELAKTFLEKFNHEAEELSYQSSLASWNYNTNITDENVQKMNEAGAKWSAFYEEQSKLAKTYPLAEIHNTTVKRQLQALQQSGSSVLSADKSQRLNTILNAMSTIYSTGKACNPNNPQECLLLEPGLDDIMENSKDYNERLWAWEGWRAEVGKQLRPLYEEYVALKNEMARANNYEDYGDYWRGDYEEEWTDGYNYSRSQLIKDVEHTFTQIKPLYQHLHAYVRAKLMDTYPSRISPTGCLPAHLLGDMWGRFWTNLYPLTVPFGQKPNIDVTDAMVNQSWDARRIFKEAEKFFVSVGLPNMTQGFWENSMLTEPGDSRKVVCHPTAWDLGKGDFRIKMCTKVTMDDFLTAHHEMGHIQYDMAYAVQPFLLRNGANEGFHEAVGEIMSLSAATPNHLKTIGLLSPGFSEDSETEINFLLKQALTIVGTLPFTYMLEKWRWMVFKGEIPKEQWMQKWWEMKREIVGVVEPVPHDETYCDPASLFHVANDYSFIRYYTRTIYQFQFQEALCRIAKHEGPLHKCDISNSSEAGKKLLQMLTLGKSKPWTLALEHVVGEKKMNVTPLLKYFEPLFTWLKEQNRNSFVGWNTDWRPYADQSIKVRISLKSALGDEAYEWNDNEMYLFRSSVAYAMREYFSKVKNQTIPFVEDNVWVSNLKPRISFNFFVTASKNVSDVIPRSEVEEAIRMSRSRINDAFRLDDNSLEFLGIQPTLSPPYQPPVT
With B1, binding was characterised by a dissociation constant (Kd) of 554 nM.

B2: horse ACE2 extracellular domain, human IgG1 Fc fusion protein (Fc fusion)
chain: QSTTEDLAKTFLEKFNSEAEELSHQSSLASWSYNTNITDENVQKMNEAGARWSAFYEEQCKLAKTYPLEEIQNLTVKRQLQALQQSGSSVLSADKSKLNEILNTMSTIYSTGKVCNPSNPQECLLLEPGLDAIMENSKDYNQRLWAWEGWRSEVGKQLRPLYEEYVVLKNEMARANNYEDYGDYWRGDYEAEGPSGYDYSRDQLIEDVERTFAEIKPLYEHLHAYVRAKLMDTYPSHINPTGCLPAHLLGDMWGRFWTNLYSLTVPFGQKPNIDVTDAMVDQSWDAKRIFEEAEKFFVSVGLPNMTQGFWENSMLTEPGDGRKVVCHPTAWDLGKGDFRIKMCTKVTMDDFLTAHHEMGHIQYDMAYAVQPYLLRNGANEGFHEAVGEIMSLSAATPNHLKAIGLLPPDFYEDSETEINFLLKQALTIVGTLPFTYMLEKWRWMVFKGEIPKEEWMKKWWEMKREIVGVVEPVPHDETYCDPAALFHVANDYSFIRYYTRTIYQFQFQEALCQTAKHEGPLHKCDISNSTEAGQKLLQMLSLGKSEPWTLALERIVGVKNMDVRPLLNYFEPLFTWLKDQNKNSFVGWSTNWSPYADQSIKVRISLKSALGEKSYEWNDNEMYLFQSSVAYAMRVYFLKAKNQTILFGEEDVWVSDLKPRISFNFFVTSPKNASDIIPRTDVEEAIRMSRSRINDAFRLDDNTLEFLGIQPTLGPPYQPPVTV
In turn, B2 yielded a Kd of 89.8 nM.
